Common to all, as to assay type: biochemical, Escherichia coli
Substrate in data set [1]: CCC(=O)SCCNC(=O)CCNC(=O)[C@H](O)C(C)(C)COP(=O)(O)OP(=O)(O)OC[C@H]1O[C@@H](n2cnc3c(N)ncnc32)[C@H](O)[C@@H]1OP(=O)(O)O
Nature of the data set: purified protein. The following applies: glycyl radical (activated by PFL-AE).

Substrate in data set [2]: O=CO
Nature of the data set: Michaelis-Menten kinetics of purified enzyme, LDH-coupled NADH assay (KM). The conditions noted are these: glycyl radical (activated by PFL-AE).

Substrate in data set [3]: CCC(=O)SCCNC(=O)CCNC(=O)[C@H](O)C(C)(C)COP(=O)(O)OP(=O)(O)OC[C@H]1O[C@@H](n2cnc3c(N)ncnc32)[C@H](O)[C@@H]1OP(=O)(O)O
The data set is described as above. The conditions noted are these: glycyl radical (activated by PFL-AE).

Substrate in data set [4]: N[C@@H](CO)C(=O)O
Nature of the data set: Michaelis-Menten kinetics of purified enzyme, DTNB assay (KM).

Substrate in data set [5]: CC(=O)SCCNC(=O)CCNC(=O)[C@H](O)C(C)(C)COP(=O)(O)OP(=O)(O)OC[C@H]1O[C@@H](n2cnc3c(N)ncnc32)[C@H](O)[C@@H]1OP(=O)(O)O
Nature of the data set: Michaelis-Menten kinetics of purified enzyme, DTNB assay of released CoA (KM).

Substrate in data set [6]: N[C@@H](CCOC(=O)CCC(=O)O)C(=O)O
Description: purified protein. The following applies: pyridoxal-5'-phosphate.

B1: pyruvate formate-lyase (PFL, PflB) (Escherichia coli K-12) (protein)
chain: SELNEKLATAWEGFTKGDWQNEVNVRDFIQKNYTPYEGDESFLAGATEATTTLWDKVMEGVKLENRTHAPVDFDTAVASTITSHDAGYINKQLEKIVGLQTEAPLKRALIPFGGIKMIEGSCKAYNRELDPMIKKIFTEYRKTHNQGVFDVYTPDILRCRKSGVLTGLPDAYGRGRIIGDYRRVALYGIDYLMKDKLAQFTSLQADLENGVNLEQTIRLREEIAEQHRALGQMKEMAAKYGYDISGPATNAQEAIQWTYFGYLAAVKSQNGAAMSFGRTSTFLDVYIERDLKAGKITEQEAQEMVDHLVMKLRMVRFLRTPEYDELFSGDPIWATESIGGMGLDGRTLVTKNSFRFLNTLYTMGPSPEPNMTILWSEKLPLNFKKFAAKVSIDTSSLQYENDDLMRPDFNNDDYAIACCVSPMIVGKQMQFFGARANLAKTMLYAINGGVDEKLKMQVGPKSEPIKGDVLNYDEVMERMDHFMDWLAKQYITALNIIHYMHDKYSYEASLMALHDRDVIRTMACGIAGLSVAADSLSAIKYAKVKPIRDEDGLAIDFEIEGEYPQFGNNDPRVDDLAVDLVERFMKKIQKLHTYRDAIPTQSVLTITSNVVYGKKTGNTPDGRRAGAPFGPGANPMHGRDQKGAVASLTSVAKLPFAYAKDGISYTFSIVPNALGKDDEVRKTNLAGLMDGYFHHEASIEGGQHLNVNVMNREMLLDAMENPEKYPQLTIRVSGYAVRFNSLTKEQQQDVITRTFTQSM
Consider B1, for which, in “purified protein [1]”, the Km is given as 830 ± 580 µM, the maximum rate (Vmax) was 1.1 µmol/min/mg and the kcat was determined as 1.7 ± 0.9 s⁻¹. Besides, in data set [2], the Km was 69 ± 11 mM, the Vmax came to 0.59 µmol/min/mg and the kcat came to 0.9 ± 0.05 s⁻¹.

B2: TdcE (2-ketobutyrate formate-lyase) (Escherichia coli K-12) (protein)
chain: MKVDIDTSDKLYADAWLGFKGTDWKNEINVRDFIQHNYTPYEGDESFLAEATPATTELWEKVMEGIRIENATHAPVDFDTNIATTITAHDAGYINQPLEKIVGLQTDAPLKRALHPFGGINMIKSSFHAYGREMDSEFEYLFTDLRKTHNQGVFDVYSPDMLRCRKSGVLTGLPDGYGRGRIIGDYRRVALYGISYLVRERELQFADLQSRLEKGEDLEATIRLREELAEHRHALLQIQEMAAKYGFDISRPAQNAQEAVQWLYFAYLAAVKSQNGGAMSLGRTASFLDIYIERDFKAGVLNEQQAQELIDHFIMKIRMVRFLRTPEFDSLFSGDPIWATEVIGGMGLDGRTLVTKNSFRYLHTLHTMGPAPEPNLTILWSEELPIAFKKYAAQVSIVTSSLQYENDDLMRTDFNSDDYAIACCVSPMVIGKQMQFFGARANLAKTLLYAINGGVDEKLKIQVGPKTAPLMDDVLDYDKVMDSLDHFMDWLAVQYISALNIIHYMHDKYSYEASLMALHDRDVYRTMACGIAGLSVATDSLSAIKYARVKPIRDENGLAVDFEIDGEYPQYGNNDERVDSIACDLVERFMKKIKALPTYRNAVPTQSILTITSNVVYGQKTGNTPDGRRAGTPFAPGANPMHGRDRKGAVASLTSVAKLPFTYAKDGISYTFSIVPAALGKEDPVRKTNLVGLLDGYFHHEADVEGGQHLNVNVMNREMLLDAIEHPEKYPNLTIRVSGYAVRFNALTREQQQDVISRTFTQAL
Turning to B2, in data set [3], the Km turned out to be 520 ± 81 µM, the Vmax is 2.1 µmol/min/mg and the kcat was 3.2 ± 0.2 s⁻¹. In data set [2], the Km is reported as 20 ± 3 mM, the maximum rate (Vmax) amounted to 1.8 µmol/min/mg and the kcat was found to be 2.7 ± 0.1 s⁻¹.

B3: serine acetyltransferase (CysE) (Escherichia coli K-12) (protein)
chain: MSCEELEIVWNNIKAEARTLADCEPMLASFYHATLLKHENLGSALSYMLANKLSSPIMPAIAIREVVEEAYAADPEMIASAACDIQAVRTRDPAVDKYSTPLLYLKGFHALQAYRIGHWLWNQGRRALAIFLQNQVSVTFQVDIHPAAKIGRGIMLDHATGIVVGETAVIENDVSILQSVTLGGTGKSGGDRHPKIREGVMIGAGAKILGNIEVGRGAKIGAGSVVLQPVPPHTTAAGVPARIVGKPDSDKPSMDMDQHFNGINHTFEYGDGI
For B3, the Michaelis constant (Km) turned out to be 0.8 ± 0.3 mM in data set [4] and 0.6 ± 0.2 mM in data set [5].

B4: cystathionine γ-synthase (MetB) (Escherichia coli K-12) (protein)
chain: MTRKQATIAVRSGLNDDEQYGCVVPPIHLSSTYNFTGFNEPRAHDYSRRGNPTRDVVQRALAELEGGAGAVLTNTGMSAIHLVTTVFLKPGDLLVAPHDCYGGSYRLFDSLAKRGCYRVLFVDQGDEQALRAALAEKPKLVLVESPSNPLLRVVDIAKICHLAREVGAVSVVDNTFLSPALQNPLALGADLVLHSCTKYLNGHSDVVAGVVIAKDPDVVTELAWWANNIGVTGGAFDSYLLLRGLRTLVPRMELAQRNAQAIVKYLQTQPLVKKLYHPSLPENQGHEIAARQQKGFGAMLSFELDGDEQTLRRFLGGLSLFTLAESLGGVESLISHAATMTHAGMAPEARAAAGISETLLRISTGIEDGEDLIADLENGFRAANKG
Turning to B4, in the data set “purified protein [6]”, the Km was found to be 0.60 ± 0.08 mM.

Values taken from paper PMC7476758, “Underground isoleucine biosynthesis pathways in E. coli” (eLife, 2020).
